Assay results as given in article PMC2982130 (Molecular Biology of the Cell, 2010).

T1: Recombinant human BMPRII/Fc chimera protein (human, UniProt Q13873 27-150)
T1 sequence: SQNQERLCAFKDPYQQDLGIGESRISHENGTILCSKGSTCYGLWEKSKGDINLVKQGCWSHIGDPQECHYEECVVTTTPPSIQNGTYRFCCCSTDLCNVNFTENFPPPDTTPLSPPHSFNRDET


Experiments:
cross-linking + co-IP = target: the molecule itself; assay: cross-linking + co-IP
[1] = target: T1, Recombinant human BMPRII/Fc chimera …; assay: SPR

Kd [1] [nM] | Binder | stoichiometry N (cross-linking + co-IP)
– | 125I-labeled recombinant human BMP4 (ligand, 125I (radioiodinated, Chloramine T method)) SPKHHSQRARKKNKNCRRHSLYVDFSDVGWNDWIVAPPGYQAFYCHGDCPFPLADHLNSTNHAIVQTLVNSVNSSIPKACCVPTELSAISMLYLDEYDKVVLKNYQEMVVEGCGCR | 2
164 | Recombinant human BMP2 (bone morphogenetic protein 2) (ligand) QAKHKQRKRLKSSCKRHPLYVDFSDVGWNDWIVAPPGYHAFYCHGECPFPLADHLNSTNHAIVQTLVNSVNSKIPKACCVPTELSAISMLYLDENEKVVLKNYQDMVVEGCGCR | –
